B1: protease IdeS (protein)
chain: DSFSANQEIRYSEVTPYHVTSVWTKGVTPPANFTQGEDVFHAPYVANQGWYDITKTFNGKDDLLCGAATAGNMLHWWFDQNKDQIKRYLEEHPEKQKINFNGEQMFDVKEAIDTKNHQLDSKLFEYFKEKAFPYLSTKHLGVFPDHVIDMFINGYRLSLTNHGPTPVKEGSKDPRGGIFDAVFTRGDQSKLLTSRHDFKEKNLKEISDLIKKELTEGKALGLSHTYANVRINHVINLWGADFDSNGNLKAIYVTDSDSNASIGMKKYFVGVNSAGKVAISAKEIKEDNIGAQVLGLFTLSTGQDSWNQTNHHHHHHSSG
B2: protease IdeE (protein)
chain: DDYQRNATEAYAKEVPHQITSVWTKGVTPLTPEQFRYNNEDVIHAPYLAHQGWYDITKAFDGKDNLLCGAATAGNMLHWWFDQNKTEIEAYLSKHPEKQKIIFNNQELFDLKAAIDTKDSQTNSQLFNYFRDKAFPNLSARQLGVMPDLVLDMFINGYYLNVFKTQSTDVNRPYQDKDKRGGIFDAVFTRGDQTTLLTARHDLKNKGLNDISTIIKQELTEGRALALSHTYANVSISHVINLWGADFNAEGNLEAIYVTDSDANASIGMKKYFVGINAHRHVAISAKKIEGENIGAQVLGLFTLSSGKDIWQKLSHHHHHH

Columns and labels:
[1] = tested on: human IVIg (an intravenous human immunoglobulin)
[2] = biological target: human IVIg (an intravenous human immunoglobulin); remark: listed apart in the source

Row | Molecule | enzymatic digestion of human IVIg in vitro, SDS-PAGE (10 ug IVIg per 1 Unit IdeZ, 37 C, 1 h) [1] | enzymatic digestion of human IVIg in vitro, SDS-PAGE (enzyme:IVIg 1:200 by mass, 37 C, 1 h) [2]
1 | protease IdeZ (Genovis) | all the three proteases can effectively cleave human IVIg | 
2 | B1 |  | all the three proteases can effectively cleave human IVIg
3 | B2 |  | all the three proteases can effectively cleave human IVIg

— patent publication US20230277633
